Entries after “also recorded” stand apart in the source; their conditions may differ. Where two headings read alike, the source gives them in different places.
How the values were obtained:
[1] = test system: MET, AKT and ERK phosphorylation; experiment: Immunoblot of MET downstream signaling, Detroit 562 and T-47D; type: cell-based, human; details: 5 nM, positive control
Method: To determine if 1E7-Fc by itself was therapeutic and inhibited MET signaling, both cell proliferation assays and western blotting examining MET downstream signaling were evaluated in Detroit […] cell and T-47D as a negative control. The MET tyrosine kinase inhibitor capmatinib was used as a positive control for MET downstream signaling.
Cells were seeded in 10-cm dishes and treated with either control (i.e., PBS), 10 nM, or 100 nM 1E7-Fc when cells reached about 75% confluency, and then cells were harvested 4, 24, or 48 h after treatment. Capmatinib (5 nM) was used as a positive control for inhibition of MET signaling. Cell lysates were prepared as previously described (Könning et al. 2017). Equal amounts of protein were analyzed by sodium dodecyl-sulfate polyacrylamide gel electrophoresis (SDS-PAGE), transferred to polyvinylidene fluoride membranes, and probed with specific primary antibodies. Targets were detected with horseradish peroxidase (HRP)-conjugated secondary antibodies (BioRad) using Enhanced Chemiluminescence western blot substrates (Pierce) and imaged on a LI-COR Odyssey Fc. The specific antibodies are as listed: MET, phospho-MET (Tyr1234/1235), AKT, phosphor-AKT (Ser473), p44/42 MAPK (Erk1/2), phosphor-p44/42 MAPK (Erk1/2) *Thr202/Try204), GAPDH.

[2] = test system: MET, AKT and ERK phosphorylation; experiment: Western blot of MET signaling, NSCLC and HeLa cell lines; type: cell-based, human; details: 5 nM, 4 h, positive control
Method: To determine if 1E7-Fc by itself was a therapeutic and inhibited MET signaling, as has been seen with other MET antibodies such as onartuzumab and emibetuzumab (De Mello et al. 2020), we performed a cell proliferation assay and Western blot to query effects of 1E7-Fc on cell behavior and downstream signaling pathways. Cell viability was measured using a panel of the same four cell lines. […] In contrast, treatment with the FDA-approved MET TKI, capmatinib, blocked MET, AKT, and ERK phosphorylation, as anticipated (FIG. 4B).
Cells were seeded in 10 cm dishes and treated with either control (PBS), 10 nM, or 100 nM 1E7-Fc when cells were reached about 75% confluency, and then cells were harvested 4 h after treatment. Five nM Capmatinib was used as a positive control. Cell lysates were generated as previously described (SenthilKumar et al. 2020).

human MET [3] = target: T1, human MET (Homo sapiens, UniProt P08581); experiment: Biolayer interferometry (BLI) of VHH domains on human MET; type: binding; details: for Ka / Kd: BLI curve fit; for Ka: association rate; for binding affinity to human MET (in words): comparison of the three VHH clones
murine MET = target: T2, murine MET (Mus musculus, UniProt P16056); experiment: Dilution ELISA counter screen on murine MET; type: binding
T2 construct: biotin (biotinylated)
Text: (§1) Next, we evaluated the ability of the three unique VHH clones (1E7, 1A2, and 2G9) to bind murine and rhesus monkey MET by performing ELISA counter screens. […] The three clones were expressed and purified for additional testing to identify a lead VHH. Biolayer interferometry (BLI) was next used to determine the affinity of each VHH domain for MET (FIGS. 3B-D, Table 7). […] The BLI and dilution ELISA data combined determined that 1E7 was the lead clone to for development into a VHH-Fc targeting MET.
(§2) Dilution ELISA: MaxiSorp plates were prepared as described above. 50 μL of biotinylated human cMET, murine cMET, or rhesus macaque cMET was added to the wells. 1E7 monomeric VHH was serial diluted from 1 μM to 15.6 nM in PBS, 1% BSA < and 0.005% Tween20 and added to each well. Wells with protein but no 1E7 VHH were used as a negative control. 1E7 binding was detected, as described above.

human MET [4] = target: T1, human MET; experiment: Dilution ELISA on human MET; type: binding; set-up: Single-domain constructs specific to MET extracellular domain were identified from a naïve VHH antibody phage display library; biotin (biotinylated); details: for specificity for human versus rhesus macaque and murine MET: ELISA, FIG. 3A
Text: as §1, §2

rhesus macaque MET = target: T3, rhesus macaque MET (Macaca mulatta, UniProt F7H1K4); experiment: Dilution ELISA counter screen on rhesus macaque MET; type: binding
T3 construct: biotin (biotinylated)
Text: as §1, §2

[5] = dissociation rate, unit not given

T2 sequence (P16056 25-1379): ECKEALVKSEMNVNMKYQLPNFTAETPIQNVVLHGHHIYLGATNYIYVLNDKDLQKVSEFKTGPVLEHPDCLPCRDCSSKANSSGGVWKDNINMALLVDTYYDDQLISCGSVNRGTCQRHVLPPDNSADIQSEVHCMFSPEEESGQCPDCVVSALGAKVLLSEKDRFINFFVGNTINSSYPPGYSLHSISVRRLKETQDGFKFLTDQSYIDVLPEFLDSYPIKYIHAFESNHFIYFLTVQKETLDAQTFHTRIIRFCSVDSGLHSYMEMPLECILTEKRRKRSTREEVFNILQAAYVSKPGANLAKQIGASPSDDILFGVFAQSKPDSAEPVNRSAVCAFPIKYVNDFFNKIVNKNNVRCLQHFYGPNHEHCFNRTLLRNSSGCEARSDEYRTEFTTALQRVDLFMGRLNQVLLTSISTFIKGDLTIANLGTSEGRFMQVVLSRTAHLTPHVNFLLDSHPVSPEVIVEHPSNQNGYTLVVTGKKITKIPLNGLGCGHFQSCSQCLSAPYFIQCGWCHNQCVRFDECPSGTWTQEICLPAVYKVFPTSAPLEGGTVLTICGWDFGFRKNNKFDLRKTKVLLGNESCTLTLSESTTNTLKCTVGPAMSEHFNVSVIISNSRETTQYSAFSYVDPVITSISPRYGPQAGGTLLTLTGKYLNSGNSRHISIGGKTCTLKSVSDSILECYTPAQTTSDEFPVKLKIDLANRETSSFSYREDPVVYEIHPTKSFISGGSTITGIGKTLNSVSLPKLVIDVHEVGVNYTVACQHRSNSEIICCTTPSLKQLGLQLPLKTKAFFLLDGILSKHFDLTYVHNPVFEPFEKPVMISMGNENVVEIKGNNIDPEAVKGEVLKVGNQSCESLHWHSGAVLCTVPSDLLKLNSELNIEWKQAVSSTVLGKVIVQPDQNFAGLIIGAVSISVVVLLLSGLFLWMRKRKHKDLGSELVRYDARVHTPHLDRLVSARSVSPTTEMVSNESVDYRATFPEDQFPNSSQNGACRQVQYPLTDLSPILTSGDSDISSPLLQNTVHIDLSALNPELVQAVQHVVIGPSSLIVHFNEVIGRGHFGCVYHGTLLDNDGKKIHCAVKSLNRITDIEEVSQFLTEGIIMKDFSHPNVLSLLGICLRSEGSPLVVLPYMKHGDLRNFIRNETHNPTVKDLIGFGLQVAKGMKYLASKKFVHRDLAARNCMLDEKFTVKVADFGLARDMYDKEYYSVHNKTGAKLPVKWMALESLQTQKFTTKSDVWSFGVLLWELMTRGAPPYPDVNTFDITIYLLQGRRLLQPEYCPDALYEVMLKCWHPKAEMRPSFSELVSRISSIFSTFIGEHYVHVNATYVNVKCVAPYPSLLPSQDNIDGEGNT
T3 sequence (F7H1K4 25-1381): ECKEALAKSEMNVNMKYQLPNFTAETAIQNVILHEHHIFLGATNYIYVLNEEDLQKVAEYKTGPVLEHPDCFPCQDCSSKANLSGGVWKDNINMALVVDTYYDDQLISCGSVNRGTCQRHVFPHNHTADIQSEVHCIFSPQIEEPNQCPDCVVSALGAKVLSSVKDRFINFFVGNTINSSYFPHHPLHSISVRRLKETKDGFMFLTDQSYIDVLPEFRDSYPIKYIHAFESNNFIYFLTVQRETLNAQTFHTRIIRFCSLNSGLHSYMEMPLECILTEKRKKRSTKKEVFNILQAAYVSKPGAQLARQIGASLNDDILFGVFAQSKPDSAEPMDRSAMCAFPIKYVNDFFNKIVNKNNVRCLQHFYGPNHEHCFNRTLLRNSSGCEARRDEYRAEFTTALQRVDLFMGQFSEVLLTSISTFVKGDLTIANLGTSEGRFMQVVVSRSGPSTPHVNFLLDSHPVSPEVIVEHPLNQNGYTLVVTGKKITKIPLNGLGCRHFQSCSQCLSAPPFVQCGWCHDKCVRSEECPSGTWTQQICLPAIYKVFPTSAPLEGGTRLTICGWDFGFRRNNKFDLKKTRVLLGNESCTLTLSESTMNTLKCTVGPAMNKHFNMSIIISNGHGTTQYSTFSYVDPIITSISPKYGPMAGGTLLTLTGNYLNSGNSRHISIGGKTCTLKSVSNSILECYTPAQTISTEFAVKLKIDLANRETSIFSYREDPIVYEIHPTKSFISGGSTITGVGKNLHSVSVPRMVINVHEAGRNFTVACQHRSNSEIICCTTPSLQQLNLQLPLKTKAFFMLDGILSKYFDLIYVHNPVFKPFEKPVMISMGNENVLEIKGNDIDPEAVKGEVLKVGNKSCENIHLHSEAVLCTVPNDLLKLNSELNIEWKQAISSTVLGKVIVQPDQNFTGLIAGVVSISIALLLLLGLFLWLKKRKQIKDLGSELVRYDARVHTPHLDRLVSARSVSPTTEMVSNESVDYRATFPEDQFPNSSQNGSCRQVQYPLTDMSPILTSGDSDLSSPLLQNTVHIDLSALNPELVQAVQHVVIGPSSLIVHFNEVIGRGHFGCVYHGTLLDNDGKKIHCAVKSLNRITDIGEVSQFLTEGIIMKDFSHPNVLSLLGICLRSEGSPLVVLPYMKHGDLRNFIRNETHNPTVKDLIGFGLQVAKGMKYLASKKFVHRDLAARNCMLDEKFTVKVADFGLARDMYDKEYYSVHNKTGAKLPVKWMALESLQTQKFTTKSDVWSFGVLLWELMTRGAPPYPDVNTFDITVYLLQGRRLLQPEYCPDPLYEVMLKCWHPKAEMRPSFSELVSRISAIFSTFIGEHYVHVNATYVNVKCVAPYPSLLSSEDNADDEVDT
T1 sequence (P08581 25-932 limits assumed): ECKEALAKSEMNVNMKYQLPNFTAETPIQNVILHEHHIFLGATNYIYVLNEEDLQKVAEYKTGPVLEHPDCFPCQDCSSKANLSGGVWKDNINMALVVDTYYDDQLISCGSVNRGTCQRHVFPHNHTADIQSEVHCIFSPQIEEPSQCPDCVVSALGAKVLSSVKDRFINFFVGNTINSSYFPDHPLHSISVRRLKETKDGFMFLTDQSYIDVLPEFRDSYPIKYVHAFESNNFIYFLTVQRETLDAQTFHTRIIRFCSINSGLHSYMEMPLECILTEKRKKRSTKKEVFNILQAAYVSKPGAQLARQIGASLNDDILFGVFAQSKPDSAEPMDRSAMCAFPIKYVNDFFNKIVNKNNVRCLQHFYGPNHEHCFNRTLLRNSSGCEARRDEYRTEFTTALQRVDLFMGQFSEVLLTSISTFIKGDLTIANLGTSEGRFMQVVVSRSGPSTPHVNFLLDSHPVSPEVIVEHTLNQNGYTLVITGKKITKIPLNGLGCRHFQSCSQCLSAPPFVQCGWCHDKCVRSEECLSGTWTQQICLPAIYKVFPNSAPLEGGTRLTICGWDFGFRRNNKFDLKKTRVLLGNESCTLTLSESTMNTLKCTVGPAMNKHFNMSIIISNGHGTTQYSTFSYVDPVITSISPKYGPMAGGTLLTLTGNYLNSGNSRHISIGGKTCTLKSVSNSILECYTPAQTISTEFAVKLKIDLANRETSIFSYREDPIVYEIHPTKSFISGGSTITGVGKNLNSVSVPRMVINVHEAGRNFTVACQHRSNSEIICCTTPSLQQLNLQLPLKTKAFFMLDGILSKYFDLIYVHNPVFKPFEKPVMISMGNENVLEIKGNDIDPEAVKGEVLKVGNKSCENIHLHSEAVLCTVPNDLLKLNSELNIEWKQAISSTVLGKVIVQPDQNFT

Which “effect on phosphorylation of MET” value [1] does the source give for `CNC(=O)c1ccc(-c2cnc3ncc(Cc4ccc5ncccc5c4)n3n2)cc1F` [capmatinib, reference compound] here?
The value was “effectively blocked”.

What about the “effect on MET, AKT and ERK phosphorylation” value [2] of the same molecule?
The value was “blocked”.

B1: 2G9: anti-MET camelid VHH single-domain antibody from phage display, amino acid sequence SEQ ID NO:26 (protein)
VHH: EVQLVESGGALVQPGGSLRLSCAASGFTFGAYDMVWVRHATGKGPEWISFISNGGEEVSYASSVKDRFTISRDNAQNMLYLQMNNLKPEDTAVYYCARSTDVSPGLSSWWTYEYDVWGQGTLVTVSS
What does the source list for B1?
Ka (human MET [3]; unit not given): 1.000 × 10^4; Kd (human MET [3]; [5]): 1.500 × 10^−3; Kd (human MET [3]; nM, read-out: KD): 159 nM; binding affinity to human MET (in words) (human MET [3]): high affinity; also recorded: weaker binding affinities; binding to murine MET (murine MET): modest cross-reactivity; specificity for human versus rhesus macaque and murine MET (human MET [4]): did not show clear specificity; binding to rhesus macaque MET (rhesus macaque MET): modest cross-reactivity

B2: 1E7: anti-MET camelid VHH single-domain antibody from phage display, amino acid sequence SEQ ID NO:22 (protein)
VHH: EVQLVESGGGLVQPGGSLRLSCEASGFNFERYDMSWVRQAPGKGPEWVSRLNSFGRSTYYLDSVKGRFTVSRDNAQNMLYLQMNNLKPEDTAVYYCARSTDVSPGLSSWWTYEYDVWGQGTQVTVSS
Which results are given for B2?
kon and koff compared to the other clones (human MET [3]; BLI): highest kon and the lowest koff; Ka (human MET [3]; unit not given): 1.445 × 10^5; Kd (human MET [3]; [5]): 4.045 × 10^−2; Kd (human MET [3]; nM, read-out: KD): 27 nM; binding affinity to human MET (in words) (human MET [3]): high affinity; also recorded: highest binding affinity; binding to murine MET (murine MET): modest cross-reactivity; also recorded: minimal binding; ELISA signal on human MET (human MET [4]; dilution ELISA, unpurified VHH serially diluted): strongest MET signal; also recorded: saturating ELISA signals; binding to rhesus macaque MET (rhesus macaque MET): modest cross-reactivity; also recorded: minimal binding

B3: 1A2: anti-MET camelid VHH single-domain antibody from phage display, amino acid sequence SEQ ID NO:24 (protein)
VHH: EAQLVESGGGLVQPGGSLRLSCEASGFNFERYDMSWVRQAPGKGPEWVSRLNSFGRSTYYLDSVKGRFTVSRDTAKSTFYLQMNNLKPEDAGVYYCARSTDVSPGLSSWWTYEYDVWGQGTQVTVSS
For B3, which Ka (human MET [3]; unit not given) is on record?
Its Ka is 1.865 × 10^5.

And the Kd (human MET [3]; [5])?
Its Kd is 2.869 × 10^−2.

And the Kd (human MET [3]; nM, read-out: KD)?
The Kd was 43 nM.

What about the “binding affinity to human MET (in words)” value (human MET [3]) of the same molecule?
Its value is “high affinity; also recorded: weaker binding affinities”.

And the “binding to murine MET” value (murine MET)?
The value was “modest cross-reactivity”.

What about the “specificity for human versus rhesus macaque and murine MET” value (human MET [4]) of the same molecule?
The value was “did not show clear specificity”.

And the “binding to rhesus macaque MET” value (rhesus macaque MET)?
The value was “modest cross-reactivity”.

— patent publication US20250152759A1, “SINGLE-DOMAIN ANTIBODIES AND VARIANTS THEREOF AGAINST MET” (Wisconsin Alumni Research Foundation, priority 2023, published 2025)
